{"source": "patent US20260015398A1", "target": "strepII-flag-PLXA fusion protein displayed on engineered extracellular vesicles (strepII-flag-PLXA-EV) (Homo sapiens (Human)) (UniProt Q9UIW2)", "sequence (Q9UIW2 863-1316 limits assumed, change not shown)": "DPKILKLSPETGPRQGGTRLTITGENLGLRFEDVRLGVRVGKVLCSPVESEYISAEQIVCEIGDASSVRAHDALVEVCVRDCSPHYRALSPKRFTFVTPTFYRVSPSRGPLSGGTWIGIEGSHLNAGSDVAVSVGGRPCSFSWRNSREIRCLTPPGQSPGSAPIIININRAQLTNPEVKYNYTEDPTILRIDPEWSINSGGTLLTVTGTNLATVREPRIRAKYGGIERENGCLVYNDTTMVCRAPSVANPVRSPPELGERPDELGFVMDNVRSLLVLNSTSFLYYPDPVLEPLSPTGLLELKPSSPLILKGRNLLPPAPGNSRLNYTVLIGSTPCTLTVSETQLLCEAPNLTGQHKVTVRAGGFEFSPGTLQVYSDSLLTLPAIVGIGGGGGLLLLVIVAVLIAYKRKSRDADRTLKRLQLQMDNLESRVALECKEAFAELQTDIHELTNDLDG", "experiment": "in vitro co-incubation of EVs with FITC-streptactin (10000:1), nanoflow cytometry, share of FITC-positive EVs"}
{"substance": "FITC-streptactin", "values": [{"measurement": "positive rate", "result": 73, "unit": "%"}]}
